± gives the standard deviation.
Assay: protein stability index of a GFP-peptide fusion (GPS, HEK-293T) (PSI 1-6); higher = more stable
[1] = treatment: DMSO, c terminus: a fixed tail appended
[2] = treatment: MLN4924 1 uM, 8 h, c terminus: a fixed tail appended
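Note: 24-mer peptide tiles fused after GFP, lentivirally expressed, FACS-sorted into six equal bins by GFP/DsRed ratio, decoded by Illumina sequencing, PSI is the read-weighted mean bin number.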

| Sequence | protein stability index [1] | protein stability index [2] | protein stability index (treatment: DMSO, c terminus: native) | protein stability index (treatment: MLN4924 1 uM, 8 h, c terminus: native) |
| --- | --- | --- | --- | --- |
| LRPQVVTDDDGQAPEAKDGSSFSG [APMAP] | 5.22 ± 0.26 | 5.31 ± 0.15 |  |  |
| HLIFSYSVWVLRDFPEDGLKIFTE [VPS39] | 2.98 ± 0.58 | 3.15 ± 0.54 |  |  |
| AYTRYLGDLSGGQVLKKIAQKALD [HMOX1] | 2.29 ± 0.19 | 2.23 ± 0.34 |  |  |
| QLIDNILEESDIDRDGTINLSEFQ [CIB1] | 3.69 ± 0.35 | 3.89 ± 0.26 |  |  |
| LEQEEERLSKEWEDSKRWSKMDQL [CHGA] | 4.81 ± 0.24 | 4.73 ± 0.17 |  |  |
| LYLIMEFLPGGDMMTLLMKKDTLT [STK38L] | 3.03 ± 0.13 | 2.94 ± 0.81 |  |  |
| KRRVALSPVTENSTSLSFLDSCNS [MYBL2] | 3.65 ± 0.2 | 3.92 ± 0.34 |  |  |
| YQELMSLKLALDMEIATYRKLLES [KRT71] | 2.38 ± 0.32 | 2.16 ± 0.22 |  |  |
| VAIFIMSLNKRHSSGDGNSKLKSE [MFSD9] | 2.77 ± 1.2 | 2.16 ± 0.12 |  |  |
| ALARLGTVTVISPLELMRTKLQAQ [SLC25A39] | 2.18 ± 0.39 | 2.15 ± 0.72 |  |  |
| GYQHVDLQNFSSSWSDGMAFCALV [SMTNL2] | 2.16 ± 0.49 | 2.01 ± 0.15 |  |  |
| RLPRQNSDGGQKNKPREHIIDCGD [WSB1] | 4.54 ± 0.39 | 5.07 ± 0.095 |  |  |
| NTTEELEALITDPDEMRMQALLIR [FEM1A] | 3.93 ± 0.29 | 3.86 ± 0.27 |  |  |
| PKKLLNPVKASRSHQELHRELLMN [FAM107A] | 3.17 ± 0.21 | 3.19 ± 0.29 |  |  |
| LAIKAITSSAKVDMTFEEEAQLLQ [FKBP8] | 2.95 ± 0.19 | 3.29 ± 0.34 |  |  |
| SPNPFPEISRGEYLYTYDSQITDS [ZNF8] | 4.08 ± 0.17 | 4.35 ± 0.38 |  |  |
| ALMHELSNDGARRQFEFYLEEMIL [BTBD10] | 2.24 ± 0.037 | 2.36 ± 0.69 |  |  |
| LAFKNDIQFWNSRQSLEGLSVRSV [CLPTM1] | 2.45 ± 0.18 | 2.5 ± 0.14 |  |  |
| RELLDRAMREAIQSYPSQDKPLPP [SOAT2] | 3.94 ± 0.12 | 3.95 ± 0.083 |  |  |
| YLATEYLETHFRDVSSTEEFLELS [GAN] | 3.13 ± 0.29 | 3.2 ± 0.35 |  |  |
| RGPDNALLEATGGAAGRSHHLDED [KCTD10] | 5.54 ± 0.26 | 5.42 ± 0.25 |  |  |
| PNPGFSMLDFLSERPWIKRMIFKL [APMAP] | 2.05 ± 0.2 | 2.36 ± 0.66 |  |  |
| SPGKQPGENSDCHRDSSQAIPITE [ZNF8] | 5.4 ± 0.17 | 5.429 ± 0.041 |  |  |

| Sequence | protein stability index [1] | protein stability index [2] | protein stability index (treatment: DMSO, c terminus: native) | protein stability index (treatment: MLN4924 1 uM, 8 h, c terminus: native) |
| --- | --- | --- | --- | --- |
| SSGCFMEYLENQVIKDKDDSVDAQ [RNF180] | 4.59 ± 0.21 | 4.63 ± 0.19 |  |  |
| TARPFGAPPPADSAPQQNGQPLRP [PDLIM7] | 4.84 ± 0.52 | 4.92 ± 0.058 |  |  |
| MAEESSCTRDCMSFSVLNWDQVSR [TENT5C] | 2.71 ± 0.29 | 2.99 ± 0.22 |  |  |
| INRLVGLQNTYMGYLDYRKKAIKD [GLT8D2] | 2.7 ± 0.3 | 3.01 ± 0.05 |  |  |
| GVVHPSNEVLSSDILPRWAIIGWL [INTS3] | 2.13 ± 0.41 | 2.18 ± 0.45 |  |  |
| VAPATMGSARSHASSRASENQSPS [ZBTB22] | 4.96 ± 0.073 | 5.07 ± 0.14 |  |  |
| TQAPPSVILGVTNPFFAKTLQHWP [DENND6A] | 2.26 ± 0.24 | 2.12 ± 0.17 |  |  |
| TFGFITMTPQLFINYKLKSVAHLP [CLPTM1] | 2.59 ± 0.47 | 2.92 ± 0.86 |  |  |
| SLVGNLGISGTTTKKGDLQWNAGE [SNAP91] | 3.54 ± 0.39 | 3.62 ± 0.23 |  |  |
| FIPAHVAFDKKVLKFDAYFQEDVP [EFHC1] | 2.24 ± 0.23 | 2.57 ± 0.58 |  |  |
| DITQEEYGEFYKSLTNDWEDHLAV [HSP90AB1] | 3.85 ± 0.17 | 4.01 ± 0.22 |  |  |
| AEFMRNFQKGQVTRDGFKLVMASL [HMOX1] | 2.33 ± 0.75 | 2.26 ± 0.16 |  |  |
| CAPCPRRSEPVVQCQYPSGAEAG [IRX6] |  |  | 2.67 ± 0.7 | 2.3 ± 0.41 |
| LNVFQTVSRMRTQRAFSIQTPEQY [PTPN9] | 2.38 ± 0.33 | 2.54 ± 0.31 |  |  |
| RLQQELEQQRCLLLARLRELEQQI [TRIM15] | 3.68 ± 0.2 | 3.69 ± 0.39 |  |  |
| EGVPSVFNPPPSRPLQVNTADHRI [FAF2] | 4.421 ± 0.042 | 4.503 ± 0.037 |  |  |
| GCSLTADGLPLHFFIQTVRPKDTV [MYORG] | 2.3 ± 0.25 | 2.19 ± 0.33 |  |  |
| FKDKSTYIESSTKVYDDMAFRYLS [CLPTM1] | 2.65 ± 0.33 | 2.57 ± 0.32 |  |  |
| PLSDDHDEKYGVPSLEELGFDTDG [CRY1] | 5.58 ± 0.18 | 5.62 ± 0.18 |  |  |
| NKSVTLYTVKDKATGEVLGQFYLD [NLN] | 2.13 ± 0.3 |  |  |  |
| NRQTFVNSAIRFLRKYSFDGLDLD [CHIT1] | 1.99 ± 0.27 | 2.48 ± 0.22 |  |  |
| SSSYAGQFRVIGPRHPIRALVGDE [MOG] | 3.54 ± 0.31 | 3.48 ± 0.32 |  |  |
| MGFVPHNGSLYGQASSERLGLDNR [ADAMTSL2] | 3.59 ± 0.38 | 3.66 ± 0.35 |  |  |

| Sequence | protein stability index [1] | protein stability index [2] | protein stability index (treatment: DMSO, c terminus: native) | protein stability index (treatment: MLN4924 1 uM, 8 h, c terminus: native) |
| --- | --- | --- | --- | --- |
| ERKKNLTLALEALVQLRGRLTSQD [ALG2] | 2.79 ± 0.16 | 2.88 ± 0.48 |  |  |
| DTLGLGKTRRKTSARDASPTPSTD [NCK2] | 5.36 ± 0.25 | 5.15 ± 0.34 |  |  |
| GREDEDGWETRGDRKARKPLVEKK [HES6] | 5.4 ± 0.14 | 5.34 ± 0.37 |  |  |
| GFTPLHMAVDKDTTNVGRYPVGRF [FEM1A] | 3.43 ± 0.089 | 3.6 ± 0.36 |  |  |
| DGYCMFNHVAVAARYAQQKHRIRR [HDAC6] | 3.05 ± 0.42 | 3.53 ± 0.2 |  |  |
| IKEEENSEEELAAATTSKEQEPIG [MYBL2] | 5.7 ± 0.31 | 5.72 ± 0.21 |  |  |
| AGGQTRLQASDRYRDLAGGTGRSA [FCHSD1] | 4.25 ± 0.41 | 4.35 ± 0.28 |  |  |
| AKLVPSEREASPSNSCQDSTDTES [IKZF1] | 5.41 ± 0.41 | 5.53 ± 0.24 |  |  |
| LKPAMTQAQDEVEQERRLSEARLS [FCHSD1] | 5.25 ± 0.18 | 5.19 ± 0.25 |  |  |
| SASEEEDTKPKPTKRKRKGSSAVG [INTS3] | 5.23 ± 0.23 | 5.38 ± 0.16 |  |  |
| APWWFWLSLTGVSLAGALGVKFVG [POMT2] | 2.48 ± 0.23 | 2.27 ± 0.15 |  |  |
| LWDRAYVRLKPALQRLDFSVRGYM [RETREG3] | 2.5 ± 0.43 | 2.69 ± 0.65 |  |  |
| IEFNPRIGKWFDFKLFFNGRPGIV [DHCR7] | 2.63 ± 0.44 | 2.91 ± 0.91 |  |  |
| LVTQQLPHLMPSNCGLEEKIANLG [S100A14] | 2.43 ± 0.68 | 3.05 ± 0.55 |  |  |
| NIYVHDLLTFQQITTVSKAKGASL [VPS39] | 2.32 ± 0.3 | 2.27 ± 0.34 |  |  |
| LSDLEDLEEEEEEEEEAEDEEVVA [IRX6] | 5.63 ± 0.23 | 5.81 ± 0.077 |  |  |
| SVWVLRDFPEDGLKIFTEDLPEVE [VPS39] | 3.55 ± 0.34 | 3.59 ± 0.33 |  |  |
| KLLKSMPILQGQIDALLEFDVHPN [SNAP91] | 2.12 ± 0.21 | 2.33 ± 0.17 |  |  |
| GRRATLQRLVEALEENELTSLAED [TRADD] | 4.54 ± 0.19 | 4.43 ± 0.14 |  |  |
| LVALAEQHAVQELTKAATSGVGID [RHOBTB1] | 4.08 ± 0.29 | 4.18 ± 0.19 |  |  |
| LEVAMEEEGLADEEKKLRRSQHAR [STK38L] | 5.43 ± 0.3 | 5.27 ± 0.35 |  |  |
| SLGQMKELGVIFYNCSCLVLDLQR [PLD5] | 2.44 ± 0.64 | 2.93 ± 0.48 |  |  |
| LLQRELAQEDSLNKLALQYGCKVA [LYSMD4] | 2.21 ± 0.34 | 2.52 ± 0.57 |  |  |

| Sequence | protein stability index [1] | protein stability index [2] | protein stability index (treatment: DMSO, c terminus: native) | protein stability index (treatment: MLN4924 1 uM, 8 h, c terminus: native) |
| --- | --- | --- | --- | --- |
| QAPIAAVLLMHMPAEQAFWCLVQI [TBC1D10A] | 3.25 ± 0.93 | 3.06 ± 0.31 |  |  |
| TPLHRDKTPLHQKHAAFVTPDQKY [MYBL2] | 4.11 ± 0.2 | 4.08 ± 0.24 |  |  |
| PSYKVKVTGLNPKTKYILLMDIVP [TBX5] | 2.73 ± 0.28 | 2.83 ± 0.49 |  |  |
| DNVAYARAFNTDHQTQLLYQASAM [RAD51] | 3.12 ± 0.047 | 3.27 ± 0.15 |  |  |
| DLVTGGELFEDIVAREYYSEADAS [CAMK2B] | 4.73 ± 0.2 | 4.52 ± 0.34 |  |  |
| STATSITLTWDSGNPEPVSYYIIQ [PTPRD] | 2.83 ± 0.59 | 2.9 ± 0.65 |  |  |
| ISLVKREHDFLDRDAIEALCRRLN [DLC1] | 2.69 ± 0.18 | 2.8 ± 0.42 |  |  |
| HSRVAKPHQREKIDKEIELHRILH [PLK2] | 3.42 ± 0.4 | 3.44 ± 0.07 |  |  |
| YNPPKDDGSTYKIELEGISVMVMR [GAN] | 2.14 ± 0.28 | 2.24 ± 0.22 |  |  |
| LFGGFTTDKQPLSDAWTYCISKNE [KLHDC2] | 2.63 ± 0.47 | 2.75 ± 0.28 |  |  |
| ILHIMVKVVKGHRPELPPVCRARP [RIPK4] | 3.35 ± 0.92 | 2.4 ± 0.36 |  |  |
| FFVVETLCIIWFSFELLVRFFACP [KCNA3] | 3.11 ± 0.52 | 2.74 ± 0.42 |  |  |
| PELLVGDTQYGSSVDIWAIGCVFA [CDKL4] | 2.14 ± 0.57 | 2.73 ± 0.98 |  |  |
| ENYLEYRQVPGSDPACYEFLWGPR [MAGEA3] | 3.12 ± 0.34 | 3.17 ± 0.36 |  |  |
| KCLQGNADGDGGGGQCCRRQDSPS [PCDHGC5] | 5.25 ± 0.29 | 5.21 ± 0.1 |  |  |
| CHSCQLYLPSTEFSVSSTSRRIYR [IQUB] | 2.45 ± 0.15 | 2.73 ± 0.54 |  |  |
| GQFVFARDAKAAMAGRLMIRKLVA [AASDHPPT] | 2.08 ± 0.43 | 2.02 ± 0.46 |  |  |
| NLQCLYCEKTFRDKNTLKDHMRKK [ZNF277] | 3.29 ± 0.42 | 3.39 ± 0.66 |  |  |
| KNKMMVCQVGGIEALVRTVLRAGD [CTNNB1] | 2.51 ± 0.45 | 2.22 ± 0.21 |  |  |
| NDPSVNSQAQETTIIASNAEEAEI [TOR1AIP2] | 5.5 ± 0.13 | 5.59 ± 0.34 |  |  |

Source: the supplement of paper PMC10567573
